B1: GST-GABARAP (natural protein)
chain: MKFVYKEEHPFEKRRSEGEKIRKKYPDRVPVIVEKAPKARIGDLDKKKYLVPSDLTVGQFYFLIRKRIHLRAEDALFFFVNNVIPPTSATMGQLYQEHHEEDFFLYIAYSDESVYGL
B2: GST-ATG8A (natural protein)
chain: MAKSSFKISNPLEARMSESSRIREKYPDRIPVIVEKAGQSDVPDIDKKKYLVPADLTVGQFVYVVRKRIKLGAEKAIFVFVKNTLPPTAALMSAIYEEHKDEDGFLYMTYSGENTFG
B3: HIS6-AtC53 (natural protein)
chain: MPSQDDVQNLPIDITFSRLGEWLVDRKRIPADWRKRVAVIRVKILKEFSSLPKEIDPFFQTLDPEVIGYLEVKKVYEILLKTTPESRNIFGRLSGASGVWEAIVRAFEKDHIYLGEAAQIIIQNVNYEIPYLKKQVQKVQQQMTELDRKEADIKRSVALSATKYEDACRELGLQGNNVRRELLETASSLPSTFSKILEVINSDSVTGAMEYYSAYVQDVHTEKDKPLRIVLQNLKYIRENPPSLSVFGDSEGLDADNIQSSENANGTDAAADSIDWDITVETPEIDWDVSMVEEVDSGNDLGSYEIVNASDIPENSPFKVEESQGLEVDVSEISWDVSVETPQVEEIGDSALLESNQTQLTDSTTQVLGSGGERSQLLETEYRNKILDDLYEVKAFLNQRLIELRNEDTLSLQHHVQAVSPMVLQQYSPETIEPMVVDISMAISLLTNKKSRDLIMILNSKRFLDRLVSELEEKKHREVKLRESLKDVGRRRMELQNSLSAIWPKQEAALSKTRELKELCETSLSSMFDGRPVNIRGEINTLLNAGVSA

How the values were obtained:
AIM wt peptide = test: SPR
GST-ATG8A = biological target: B2; test: SPR; derived from AIM wt peptide competition

For B1, the Kd (AIM wt peptide) was 1.64 µM.

Binder B2 has a Kd (AIM wt peptide) of 5.88 µM.

Binder B3 has a Kd (GST-ATG8A) of roughly 1390 nM.
